Data on two proteins can be found in PMC9067936, “SHIP164 is a chorein motif lipid transfer protein that controls endosome–Golgi membrane traffic” (The Journal of Cell Biology, 2022).

This series concerns the molecule itself. The series is described as follows: negative-stain electron microscopy; 2D class averages of negatively stained purified protein (50 nM, 2% uranyl acetate, carbon-coated copper grids); MBP densities used to locate the N-termini.

B1: MBP-SHIP164 fusion (MBP fused to the N-terminus of SHIP164_(Δ901–1099)) (natural protein)
chain: not shown
notes: SHIP164 (UHRF1BP1L), human, codon-optimised ORF; lacks residues 901-1099; Probably made in Expi293F and purified as m1, possibly with a 3xFLAG tag as well; not shown: MBP (E. coli MBP residues 27–392 and two additional alanines), N-terminal, kept
In the case of B1, the “stoichiometry N” value amounted to 2.

B2: 3XFLAG-SHIP164_(Δ901–1099) (natural protein)
chain: not shown
notes: SHIP164 (UHRF1BP1L), human, codon-optimised ORF from Genscript; construct lacking the predicted unstructured segment, residues 901-1099; Seen as a tail-to-tail dimer in vitro; also called 3×FLAG-SHIP164_(Δ901–1099); UHRF1BP1L; source: Expi293F, transfected, purified (anti-FLAG M2 resin, gel filtration on Superdex 200); not shown: 3xFLAG, N-terminal, kept
Take B2: the “stoichiometry N” value was found to be 2.

As usually defined, the stoichiometry N is the number of molecules, sites or subunits per partner or assembly.
